Data from patent US20210221875A1 (Chugai, published 2021).
Residue numbers refer to the chain shown, from its start.

T1: human CD3ed-Fc (human)
T1 construct: human CD3 epsilon and human CD3 delta linked to a human antibody constant region, biotinylated in culture with BirA; also called CD3 epsilon delta heterodimer fused with the antibody constant region; biotin-labeled human CD3ed-Fc
T1 chain 1: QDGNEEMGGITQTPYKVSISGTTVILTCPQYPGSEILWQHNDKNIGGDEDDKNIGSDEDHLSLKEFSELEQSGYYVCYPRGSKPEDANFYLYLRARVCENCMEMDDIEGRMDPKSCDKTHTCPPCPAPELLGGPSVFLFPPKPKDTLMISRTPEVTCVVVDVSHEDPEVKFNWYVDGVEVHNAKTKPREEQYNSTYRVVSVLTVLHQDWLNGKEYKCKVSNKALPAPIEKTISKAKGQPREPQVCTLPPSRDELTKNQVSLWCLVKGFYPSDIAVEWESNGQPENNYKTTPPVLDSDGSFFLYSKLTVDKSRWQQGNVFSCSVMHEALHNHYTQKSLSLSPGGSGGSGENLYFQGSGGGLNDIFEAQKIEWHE
T1 chain 2: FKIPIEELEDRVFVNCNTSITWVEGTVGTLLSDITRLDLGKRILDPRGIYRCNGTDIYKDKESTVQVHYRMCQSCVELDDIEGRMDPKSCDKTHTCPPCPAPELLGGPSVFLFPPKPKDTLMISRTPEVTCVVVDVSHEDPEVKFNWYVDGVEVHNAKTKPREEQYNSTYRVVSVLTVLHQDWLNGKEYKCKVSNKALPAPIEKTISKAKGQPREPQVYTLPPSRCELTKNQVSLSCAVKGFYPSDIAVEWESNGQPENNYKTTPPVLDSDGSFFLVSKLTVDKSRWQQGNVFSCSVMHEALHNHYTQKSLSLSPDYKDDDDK

B1: hA2R3p.038-G1mISHI01/VK1.39-k0MT (antibody, human IgG1, kappa, V domains shown)
VH: QLQLVESGGGLVQAGGSLRLSCAASGRTFRTYAMGWFRQAPGKEREFVSSISGSGGSKIYADSVKGRFTISRDNAKDTVNLQMNSLKPEDTAVYYCAVARGYYGTMASDPGLYDYWGQGTQVTVSS
VL: DIQMTQSPSSLSASVGDRVTITCRASQSISSYLNWYQQKPGKAPKLLIYAASSLQSGVPSRFSGSGSGTDFTLTISSLQPEDFATYYCLQFDSYPLTFGGGTKVEIKR
B2: PX02-R4_017-G1mISHI01/VK1-39-k0MT (antibody, human IgG1, kappa, V domains shown)
VH: QVQLVESGGGLVQPGGSLRLSCTASGISFSISTMGWYRQAPGKQRELVATITSGGEAYYANSMKDRFTISRDNAENTVYLQMNRLKPEDSAVYYCNTKFPWSTDWNARGQGTQVTVSG
VL: B1 VL
notes: uncleaved; light chain printed once for the five molecules
B3: bC3edL1R1N161H01-G1mISHI01/VK1-39-k0MT (antibody, human IgG1, kappa, V domains shown)
VH: QVQLVESGGGLVQPGGSLRLSCAASGFPFDNYVMSWVRQAPGKGLEWISAISWNGGSTYYAESMKGRFTISRDNAKSTLYLQMNSLKSEDTAVYYCAKEPRVYYSGSPDYWGQGTQVTVSG
VL: B1 VL
notes: uncleaved
B4: bC3edL1R1N160H01-G1mISHI01/VK1-39-k0MT (antibody, human IgG1, kappa, V domains shown)
VH: QVQLVESGGGLVQPGGSLRLSCAASGFTFNHCWMYWVRQAPGKGLEWVSVINTDGGSAYYADSVKGRFTISRDNAKNTLYLQMNSLKSEDTAVYYCARDWAPLVDYYYGMDYWGKGTLVTVSG
VL: B1 VL
B5: bC3edL1R1N164H01-G1mISHI01/VK1-39-k0MT (antibody, human IgG1, kappa, V domains shown)
VH: QVQLVESGGGLVQPGGSLRLSCAASGFTFDVYGMSWVRHSPGKGLEWVSTINWNGGSTYYAESMKGRFTISRDNAKNTVYLQMNSLKPEDTAVYYCAKFAPWDGDMEWGQGTQVTVSG
VL: B1 VL
notes: uncleaved
B6: PX03-R4_009-G1mISHI01/VK1-39-k0MT (antibody, human IgG1, kappa, V domains shown)
VH: B2 VH with V2L, T52A, M63V, D65G, D72E, N73Y, Y79F
VL: B1 VL
notes: as for B2
B7: PX03-R2_006-G1mISHI01/VK1-39-k0MT (antibody, human IgG1, kappa, V domains shown)
VH: B2 VH with V2L, T52A, M63V, D65G
VL: B1 VL
notes: as for B2

Tests used:
[1] = molecular target: T2, Human aggrecan G1-IGD-G2 domain with Flag-tag on its C-terminus (human, UniProt P16112 17-675); experiment: BLI (Octet RED), biotin-labeled human aggrecan G1-IGD-G2-Flag on streptavidin sensor, 27 C
T2 construct: used unlabelled as Biacore analyte; also called human aggrecan G1-IGD-G2-Flag; human Aggrecan G1G2 flag

[2] = molecular target: T3, biotinylated plexin A1 (human, UniProt Q9UIW2 27-1253, biotin on the AviTag sequence (BirA co-expression)); experiment: BLI (Octet), in the same way as in Example 3
T3 construct: extracellular region of plexin A1 linked to AviTag and FLAG tag; also called biotin-labeled human plexin A1; human plexin A1
T3 sequence (Q9UIW2 other isoform, or with tags, fused parts or gaps limits assumed): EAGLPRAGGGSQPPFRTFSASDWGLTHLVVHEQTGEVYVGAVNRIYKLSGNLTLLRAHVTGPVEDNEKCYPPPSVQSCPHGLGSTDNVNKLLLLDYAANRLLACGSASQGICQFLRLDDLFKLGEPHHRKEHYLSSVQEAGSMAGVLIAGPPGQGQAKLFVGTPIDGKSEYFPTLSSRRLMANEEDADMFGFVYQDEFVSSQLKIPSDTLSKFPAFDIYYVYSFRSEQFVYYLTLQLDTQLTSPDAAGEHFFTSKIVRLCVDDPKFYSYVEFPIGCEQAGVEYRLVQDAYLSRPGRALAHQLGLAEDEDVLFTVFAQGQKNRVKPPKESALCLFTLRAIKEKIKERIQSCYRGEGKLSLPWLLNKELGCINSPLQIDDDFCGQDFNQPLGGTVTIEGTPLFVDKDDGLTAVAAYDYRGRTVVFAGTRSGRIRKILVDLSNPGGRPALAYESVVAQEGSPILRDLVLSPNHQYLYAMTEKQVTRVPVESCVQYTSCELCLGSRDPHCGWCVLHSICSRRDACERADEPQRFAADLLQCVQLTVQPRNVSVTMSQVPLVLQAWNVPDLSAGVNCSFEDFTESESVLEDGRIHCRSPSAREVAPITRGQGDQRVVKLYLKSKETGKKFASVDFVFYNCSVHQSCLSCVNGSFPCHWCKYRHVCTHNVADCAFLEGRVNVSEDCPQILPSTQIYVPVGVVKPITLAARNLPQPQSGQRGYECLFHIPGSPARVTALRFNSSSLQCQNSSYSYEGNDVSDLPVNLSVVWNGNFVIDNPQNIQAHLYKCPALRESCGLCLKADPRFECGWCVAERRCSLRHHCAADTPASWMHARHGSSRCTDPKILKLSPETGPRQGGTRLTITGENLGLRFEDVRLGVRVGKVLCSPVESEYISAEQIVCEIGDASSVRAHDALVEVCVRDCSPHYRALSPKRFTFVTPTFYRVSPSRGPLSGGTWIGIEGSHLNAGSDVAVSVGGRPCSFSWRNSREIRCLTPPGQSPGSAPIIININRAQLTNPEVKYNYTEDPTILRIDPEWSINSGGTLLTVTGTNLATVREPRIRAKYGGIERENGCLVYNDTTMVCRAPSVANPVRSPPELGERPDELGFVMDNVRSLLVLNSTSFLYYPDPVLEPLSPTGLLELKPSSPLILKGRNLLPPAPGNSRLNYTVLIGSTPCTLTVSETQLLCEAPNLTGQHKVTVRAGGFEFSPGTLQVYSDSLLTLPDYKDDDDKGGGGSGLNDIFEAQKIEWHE

[3] = molecular target: T1, human CD3ed-Fc; experiment: BLI (Octet RED), human CD3ed-Fc on the sensor

Row | Binder | binding result [2] | binding result [3] | other results
1 | B1 |  |  | binding result [1]: binds
2 | B2 | no binding |  | 
3 | B3 |  | no binding | 
4 | B4 |  | no binding | 
5 | B5 |  | no binding | 
6 | B6 | no binding |  | 
7 | B7 | no binding |  | 
